Measurements published in article PMC5159797.

B1: GST-SKAP [not stated] / GFP-Kif2b [human] (parent)
chain 1: MAAPEAPPLDRVFRTTWLSTECDSHPLPPSYRKFLFETQAADLAGGTTVAAGNLLNESEKDCGQDRRAPGVQPCRLVTMTSVVKTVYSLQPPSALSGGQPADTQTRATSKSLLPVRSKEVDVSKQLHSGGPENDVTKITKLRRENGQMKATDTATRRNVRKGYKPLSKQKSEEELKDKNQLLEAVNKQLHQKLTETQGELKDLTQKVELLEKFRDNCLAILESKGLDPALGSETLASRQESTTDHMDSMLLLETLQEELKLFNETAKKQMEELQALKVKLEMKEERVRFLEQQTLCNNQVNDLTTALKEMEQLLEM
chain 2: MASQFCLPESPCLSPLKPLKPHFGDIQEGIYVAIQRSDKRIHLAVVTEINRENYWVTVEWVEKAVKKGKKIDLETILLLNPALDSAEHPMPPPPLSPLALAPSSAIRDQRTATKWVAMIPQKNQTASGDSLDVRVPSKPCLMKQKKSPCLWEIQKLQEQREKRRRLQQEIRARRALDVNTRNPNYEIMHMIEEYRRHLDSSKISVLEPPQEHRICVCVRKRPLNQRETTLKDLDIITVPSDNVVMVHESKQKVDLTRYLQNQTFCFDHAFDDKASNELVYQFTAQPLVESIFRKGMATCFAYGQTGSGKTYTMGGDFSGTAQDCSKGIYALVAQDVFLLLRNSTYEKLDLKVYGTFFEIYGGKVYDLLNWKKKLQVLEDGNQQIQVVGLQEKEVCCVEEVLNLVEIGNSCRTSRQTPVNAHSSRSHAVFQIILKSGRIMHGKFSLVDLAGNERGADTTKASRKRQLEGAEINKSLLALKECILALGQNKPHTPFRASKLTLVLRDSFIGQNSSTCMIATISPGMTSCENTLNTLRYANRVKKLNVDVRPYHRGHYPIGHEAPRMLKSHIGNSEMSLQRDEFIKIPYVQSEEQKEIEEVETLPTLLGKDTTISGKGSSQWLENIQERAGGVHHDIDFCIARSLSILEQKIDALTEIQKKLKLLLADLHVKSKVE

Variants of: B1
Test: GST pull-down, anti-GFP blot quantified
Details: with GFP-Kif2b [human]; GFP-Kif2b from HEK293T cell lysates; parent: 1; read off a plot

Row | ratio to parent | Variant
1 | 1.2 | chain 1 S232E S237E T294E
2 | 0.7 | chain 1 S232A S237A T294A
